For test [1], the target named is T1, hu-CD96 isoform 1 on HEK293T cells (human, UniProt P40200 22-585).
T1 construct: Origene RC213845, transient expression; also called HEK293T-CD96 (iso1)
T1 sequence: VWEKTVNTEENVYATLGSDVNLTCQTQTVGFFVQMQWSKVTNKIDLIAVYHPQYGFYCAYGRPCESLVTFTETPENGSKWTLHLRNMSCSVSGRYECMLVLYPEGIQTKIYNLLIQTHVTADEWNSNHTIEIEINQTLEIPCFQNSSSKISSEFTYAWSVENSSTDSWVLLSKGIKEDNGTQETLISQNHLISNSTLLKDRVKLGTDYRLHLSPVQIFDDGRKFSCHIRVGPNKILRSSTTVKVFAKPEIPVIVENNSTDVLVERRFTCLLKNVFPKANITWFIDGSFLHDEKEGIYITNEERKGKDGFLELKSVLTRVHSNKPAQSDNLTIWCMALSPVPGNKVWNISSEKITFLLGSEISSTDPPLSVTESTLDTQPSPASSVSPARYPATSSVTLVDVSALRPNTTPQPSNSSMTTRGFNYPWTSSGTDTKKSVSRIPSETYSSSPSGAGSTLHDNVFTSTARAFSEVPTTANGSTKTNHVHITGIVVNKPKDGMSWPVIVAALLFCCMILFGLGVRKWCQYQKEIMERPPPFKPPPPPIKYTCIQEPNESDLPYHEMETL
Put plainly: FACS, % positive curve. The protocol: (§1) Isoform 1 of hu-CD96 (Origene, catalog #RC213845) was transiently expressed in HEK293T cells following standard lipofectamine or Fugene transfection protocol. […] Cells were washed, and binding was detected by incubation with anti-mouse IgG-FITC (Biolegend, catalog #406001) for 20 minutes at 4° C. Cell binding was analyzed by flow cytometry with a CytoFLEX (Beckman Coulter). Binding curves were calculated as a percentage of cells positive for bound antibody.

The target of test [2] is T1, hu-CD96 isoform 1 on HEK293T cells. Put plainly: FACS, Ab 50 nM. As for the experimental part:
as §1
In general terms: Flow cytometry measures light scatter and fluorescence of single cells or particles in a stream.

Test [3] has as its target T2, cy-CD96 (soluble, extracellular domain) (cynomolgus monkey, UniProt P40200 22-516 (human entry), biotinylated in Octet and blocking ELISA).
T2 construct: the assays name only cy-CD96; also called biotinylated cy-CD96
T2 chain: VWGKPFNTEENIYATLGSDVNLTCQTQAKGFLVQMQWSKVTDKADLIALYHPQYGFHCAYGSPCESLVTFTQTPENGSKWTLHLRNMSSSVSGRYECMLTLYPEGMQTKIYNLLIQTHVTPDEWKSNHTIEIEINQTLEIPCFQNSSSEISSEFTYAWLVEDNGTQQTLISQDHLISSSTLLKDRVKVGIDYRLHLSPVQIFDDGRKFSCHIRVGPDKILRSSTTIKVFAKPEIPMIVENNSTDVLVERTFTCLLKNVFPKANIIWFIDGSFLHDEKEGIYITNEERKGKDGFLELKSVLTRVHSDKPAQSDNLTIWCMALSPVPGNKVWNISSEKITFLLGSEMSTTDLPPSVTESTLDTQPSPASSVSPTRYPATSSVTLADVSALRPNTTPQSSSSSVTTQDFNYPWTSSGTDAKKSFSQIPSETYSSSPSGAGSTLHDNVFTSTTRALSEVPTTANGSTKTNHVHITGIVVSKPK
Put plainly: BLI (Octet), biotin-CD96 on SA, Fab analyte. The protocol:
The binding affinity of the generated Fab variants of mAb1.v7 for hu-CD96 and cy-CD96 was determined by OCTET (Pall ForteBio) Bio-Layer Interferometry (BLI) binding analysis. The biotinylated hu-CD96 or biotinylated cy-CD96 was diluted to a final concentration 10 µg/mL in experimental buffer (PBS buffer with 0.01% Tween-20) and immobilized on the Streptavidin Capture (SA) biosensors (Pall ForteBio). Three-fold serial dilutions of the mAb1.v7 Fab variants starting at 1 µM as analytes were diluted in the experimental buffer (PBS buffer with 0.01% Tween-20). The biosensors were equilibrated in experimental buffer at 30° C. for ten minutes prior to starting the experiment. The kinetics experiment was performed with the following steps, where the step name, solution and time are listed: Baseline (buffer—60 seconds), Loading (biotinylated antigen—200 seconds), Baseline 2 (buffer—minimum 120 seconds), Association (analyte—200-300 seconds) and Dissociation (buffer—1000 seconds). The resulting BLI signal from analyte association and dissociation from the […] was analyzed using the Octet Data Analysis software (Pall ForteBio). First a reference subtraction was performed on all recorded traces using the reference well (biosensor that underwent same steps as experimental wells but no analyte for the Association step) and then all the traces were aligned to the beginning of the Association step. The entirety of the Association and Dissociation steps were used in a Global fit (minimum of four analyte concentration traces) in a 1:1 binding model to calculate the K_D values for the 16 selected individual mAb1.v7 Fab variants as summarized in Table 9 (below).

Test [4] addresses T2, cy-CD96 (soluble, extracellular domain). Put plainly: phage competition ELISA, soluble CD96 vs coated hu-CD96. As for the experimental part: 192 colonies from most stringent selections (biotinylated 0.1 nM of hu-CD96 or cy-CD96 with 1000× non-biotinylated human or cy-CD96) were grown in 400 µL 2YT with 4 µL helper phage M13KO7 overnight at 37° C. with shaking. After spinning down the pellet, the phage supernatant was diluted 1:1 with 2 nM hu-CD96, 20 nM cy-CD96 and ELISA buffer (0.5% BSA and 0.05% TWEEN®20 in PBS) in total […] and incubated for two hours at room temperature with agitation. The […] of mixture was transferred to hu-CD96 coated plate for 15 min to capture unbound phage. The plate was washed with wash buffer (0.05% TWEEN®20 in PBS), and HRP-conjugated anti-M13 antibody (Sino biological, Cat #11973-MM05-H-50) was added in ELISA buffer for 30 min. […] Enzymatic color development was stopped using TMB stop solution (VWR, Cat #95059-200). Plates were analyzed with a SpectraMax i3X plate reader (Molecular Devices). The % inhibition was calculated by the $OD450$ of wells with hu-CD96/cy-CD96 competitor divided by $OD450$ of wells with buffer alone. The lower % inhibition indicated higher phage $IC50$ against hu-CD96 or cy-CD96.
Selected top inhibition % phage variants from single spot competition were purified from culture supernatants. The optimal phage concentration was incubated with serially-diluted hu-CD96 or cy-CD96 in ELISA buffer in NUNC F plate for two hours. The […] of the mixture was transferred to hu-CD96 coated wells for 15 min to capture unbound phage. The plate was washed with wash buffer (0.05% TWEEN®20 in PBS), and HRP-conjugated anti-M13 antibody (Sino biological, Cat #11973-MM05-H-50) was added in ELISA buffer for 30 min. The plates were washed and developed as described above. The absorbance at 450 nm was plotted as a function of antigen concentration in solution to determine phage $IC50$.
A general note: ELISA stands for enzyme-linked immunosorbent assay.

Changes are numbered by the printed parent chain. Names may count otherwise.

B1: 10G1 (clone 10G1.3G8), purified hybridoma antibody (antibody, V domains shown)
VH: QIQLVQSGPELKKPGETVKISCKASGYPFTTYGMSWVKQAPGKGLKWMGWINTDSGVPTYADDFKGRFAFSLETSANTAYLQINSLKNEDAATYFCARNIYYGWGNFDYWGQGTILTVSS
VL: DILMTQSPTTLSVTPGETVSLSCRASQDIYRNLHWYQQKSQGTPRLLIKHASDSISGIPSRFTGSGSGTDFTLSINSVKPEDEGIYYCLQGYSMPYTFGGGTKLEIK
notes: murine hybridoma IgG
As to B1, in test [1], the EC50 was 0.24 nM. For the same molecule, in test [2], the “% positive” value was found to be 56.1%.

B2: mAb1.v7.2 Fab (Fab, V domains shown)
VH: EVQLVQSGAEVKKPGASVKVSCKASGFTFTNNWRHWVRQAPGQGLEWIGMIHFNSGITNINEKFKNRVTMTTDTSTSTAYMELRSLRSEDTAVYYCRSDGVYEGYFDYWGQGTLVTVSS
VL: DIQLTQSPSSLSASVGDRVTITCKASQNVGTAIVWYQQKPGKAPKVLIYSASTRYTGVPSRFSGSGSGTDFTLTISSLQPEDFATYYCQQYSSSPLTFGQGTKVEIK
notes: also called M34R/P52aF/T97V
For the molecule B2, the Kd in test [3] was 39.1 nM. The same molecule showed an IC50 in test [4] of 1.8 nM.

B3: mAb1.v7.70 Fab (Fab, V domains shown)
VH: B2 VH with N32R, R34M, F53A
VL: B2 VL
notes: also called N32R/P52aA/T97V
For the molecule B3, in test [3], the Kd worked out at 52.6 nM. The molecule further registered an IC50 in test [4] of 0.4 nM.

B4: mAb1.v7 IgG (humanized 12F8) (antibody, V domains shown)
VH: B2 VH with R34M, F53P, V101T
VL: DIQLTQSPSSLSASVGDRVTITCKASQNVGTAIVWYQQKPGKAPKVLIYSASTRYTGVPSRFSGSGSGTDFTLTISSLQPEDFATYYCQQYSSSPLTFGQGTKVEIKG
notes: human IgG1 N297G
B4 registered an EC50 in test [1] of 2.6 nM. Moreover, the “% positive” value in test [2] worked out at 61%.

B5: mAb1.v7.48 Fab (Fab, V domains shown)
VH: B2 VH with N32R, R34M, F53H
VL: B2 VL
notes: also called N32R/P52aH/T97V
Turning to B5, in test [3], the dissociation constant (Kd) came out at 68 nM. This molecule also had an IC50 in test [4] of 0.3 nM.

B6: mAb1.v7.16 Fab (Fab, V domains shown)
VH: B2 VH with F53P
VL: B2 VL
notes: also called M34R/T97V
Regarding B6, the affinity in test [3], expressed as Kd, was 97.9 nM. Besides, the IC50 in test [4] was found to be 1.6 nM.

B7: mAb1.v7.9 Fab (Fab, V domains shown)
VH: B2 VH with F53M
VL: B2 VL
notes: also called M34R/P52aM/T97V
As to B7, the Kd in test [3] came out at 129 nM. The molecule further returned an IC50 in test [4] of 0.37 nM.

B8: 7E5, purified hybridoma antibody (antibody, V domains shown)
VH: QVQLKESGPGLVAPSQSLSIICTVSGFSLTNYGIHWIRQPPGKGLEWLGIIWAGGSTNYNSALMSRLTISKDNSKSQVFLKMNSLQTNDTAIYYCARVSMMGFAYWGQGTLVTVSA
VL: QAVVTQESALTTSPGETVTLTCRSSTGAVTTSNYANWVQEKPDHLFTGLIGGTNNRAPGVPARFSGSLIGDKAALTITGAQTEDEAIYFCSLWYGSHWVFGGGTKLTVL
notes: murine hybridoma IgG
As to B8, the EC50 in test [1] came to 0.71 nM. Besides, the “% positive” value in test [2] stood at 52.1%.

B9: 9H4, purified hybridoma antibody (antibody, V domains shown)
VH: EVQLLETGGGLVKSGGSLKLSCAASGFTFSDYYMYWVRQTPEKRLEWVAAISDDGTYTYYPDSVKGRFTISRDNANNYLYLQMSSLKSEDTAIYYCAKAGSYDYFDVWGAGTTVTVSS
VL: DIVLTQSPASLAVSLGQRAIISCKASQSVTFADTGLMHWYQQKPGQQPKLLIYRASNLEVGVPTRFSGSGSGTDFTLNIHPVEEEDVATYYCQQSREYPWTFGGGTKLEIK
notes: murine hybridoma IgG
In test [1], B9 gave a 50% effective concentration (EC50) of 2.1 nM. Besides, the “% positive” value in test [2] was 57.8%.

By EC50 is commonly meant the midpoint of the concentration-response curve. Low readings indicate greater potency, high ones weaker potency. For orientation: Kd means the free concentration of one partner at which half of the binding sites on the other are occupied at equilibrium, for simple one-to-one binding. High values mean a looser complex, low ones a tighter complex. A word on the IC50: it is the concentration that inhibits the measured activity by half. The low end stands for inhibition by little substance, the high end for a need for much substance.

Values taken from US12365732 (23ANDME, dated 2025).
